We go through five sequences from the supplement of paper PMC5998384.

The subject of data set [1] is HeLa Kyoto. In words: solubility in G1/S (NP-40 vs SDS abundance) (log2 ratio); higher = more soluble. The following applies: cell cycle stage: G1/S.
Data set [2] has as its system HeLa Kyoto. In words: melting temperature (median over replicates), in situ; higher = more thermally stable.
In data set [3] the test system is HeLa Kyoto. The experiment in a line: solubility change mitosis vs G1/S (difference of NP-40 vs SDS log2 ratios) (log2 ratio difference); higher = more soluble in mitosis.
In data set [4] the test system is HeLa Kyoto. In words: thermal stability score vs G1/S (z-score of summed log2 fold changes over temperatures); higher = more thermally stable than in G1/S.
The mark [5] stands for this setting: cell cycle stage: early G1 (4.5 h after nocodazole release).
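For melting temperature (median over replicates), in situ in this document: HeLa Kyoto cells synchronized by double thymidine or nocodazole block, proteins quantified by TMT10plex mass spectrometry, three independent biological replicates.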
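For solubility change mitosis vs G1/S (difference of NP-40 vs SDS log2 ratios) in this document: synchronized HeLa Kyoto cells (double thymidine block for G1/S, nocodazole release for mitosis), protein amounts in NP-40 versus SDS lysates quantified by mass spectrometry, three biological replicates.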
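For solubility in G1/S (NP-40 vs SDS abundance) in this document: HeLa Kyoto cells arrested at G1/S by double thymidine block, proteins quantified by TMT10plex mass spectrometry in mild NP-40 versus SDS extracts, three biological replicates.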
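For thermal stability score vs G1/S (z-score of summed log2 fold changes over temperatures) in this document: synchronized HeLa Kyoto cells, proteins quantified by TMT10plex mass spectrometry, three biological replicates, mitosis taken 0.5 h after nocodazole release, G1/S directly after double thymidine block.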

As to “MKIFVGNVDGADTTPEELAALFAPYGTVMSCAVMKQFAFVHMRENAGALRAIEALHGHELRPGRALVVEMSRPRPLNTWKIFVGNVSAACTSQELRSLFERRGRVIECDVVKDYAFVHMEKEADAKAAIAQLNGKEVKGKRINVELSTKGQKKGPGLAVQSGDKTKKPGAGDTAFPGTGGFSATFDYQQAFGNSTGGFDGQARQPTPPFFGRDRSPLRRSPPRASYVAPLTAQPATYRAQPSVSLGAAYRAQPSASLGVGYRTQPMTAQAASYRAQPSVSLGAPYRGQLASPSSQSAAASSLGPYGGAQPSASALSSYGGQAAAASSLNSYGAQGSSLASYGNQPSSYGAQAASSYGVRAAASSYNTQGAASSLGSYGAQAASYGAQSAASSLAYGAQAASYNAQPSASYNAQSAPYAAQQAASYSSQPAAYVAQPATAAAYASQPAAYAAQATTPMAGSYGAQPVVQTQLNSYGAQASMGLSGSYGAQSAAAATGSYGAAAAYGAQPSATLAAPYRTQSSASLAASYAAQQHPQAAASYRGQPGNAYDGAGQPSAAYLSMSQGAVANANSTPPPYERTRLSPPRASYDDPYKKAVAMSKRYGSDRRLAELSDYRRLSESQLSFRRSPTKSSLDYRRLPDAHSDYARYSGSYNDYLRAAQMHSGYQRRM [RBM14]”, the “solubility in G1/S (log2)” value with HeLa Kyoto [1] was -0.765. Moreover, the melting temperature in the data set on HeLa Kyoto [2] (cell cycle stage: G1/S) was 47.3 °C; in the data set on HeLa Kyoto [2] (cell cycle stage: mitosis), 46.1 °C. For the same sequence, the “solubility change mitosis (log2)” value with HeLa Kyoto [3] was determined as 0.332. Further, the results for the thermal stability score in the data set on HeLa Kyoto [4] (setting [5]) and in the data set on HeLa Kyoto [4] (cell cycle stage: mitosis) were 1.48 and 2.24, respectively.
In the case of “MKKAEMGRFSISPDEDSSSYSSNSDFNYSYPTKQAALKSHYADVDPENQNFLLESNLGKKKYETEFHPGTTSFGMSVFNLSNAIVGSGILGLSYAMANTGIALFIILLTFVSIFSLYSVHLLLKTANEGGSLLYEQLGYKAFGLVGKLAASGSITMQNIGAMSSYLFIVKYELPLVIQALTNIEDKTGLWYLNGNYLVLLVSLVVILPLSLFRNLGYLGYTSGLSLLCMVFFLIVVICKKFQVPCPVEAALIINETINTTLTQPTALVPALSHNVTENDSCRPHYFIFNSQTVYAVPILIFSFVCHPAVLPIYEELKDRSRRRMMNVSKISFFAMFLMYLLAALFGYLTFYEHVESELLHTYSSILGTDILLLIVRLAVLMAVTLTVPVVIFPIRSSVTHLLCASKDFSWWRHSLITVSILAFTNLLVIFVPTIRDIFGFIGASAASMLIFILPSAFYIKLVKKEPMKSVQKIGALFFLLSGVLVMTGSMALIVLDWVHNAPGGGH [SLC38A2]”, the “solubility in G1/S (log2)” value in the data set on HeLa Kyoto [1] was 0.157. The figures for the melting temperature in the data set with HeLa Kyoto [2] (cell cycle stage: G1/S) and in the data set with HeLa Kyoto [2] (cell cycle stage: mitosis) were 57.5 °C and 57.6 °C, respectively. In addition, the “solubility change mitosis (log2)” value in the data set on HeLa Kyoto [3] was -0.301. The thermal stability score in the data set with HeLa Kyoto [4] (setting [5]) is -0.691; with HeLa Kyoto [4] (cell cycle stage: mitosis) it was -0.748.
Take “MKKEHVLHCQFSAWYPFFRGVTIKSVILPLPQNVKDYLLDDGTLVVSGRDDPPTHSQPDSDDEAEEIQWSDDENTATLTAPEFPEFATKVQEAINSLGGSVFPKLNWSAPRDAYWIAMNSSLKCKTLSDIFLLFKSSDFITRDFTQPFIHCTDDSPDPCIEYELVLRKWCELIPGAEFRCFVKENKLIGISQRDYTQYYDHISKQKEEIRRCIQDFFKKHIQYKFLDEDFVFDIYRDSRGKVWLIDFNPFGEVTDSLLFTWEELISENNLNGDFSEVDAQEQDSPAFRCTNSEVTVQPSPYLSYRLPKDFVDLSTGEDAHKLIDFLKLKRNQQEDD [CDC123]”: the “solubility in G1/S (log2)” value with HeLa Kyoto [1] was -0.058. Moreover, the melting temperature stood at 51.7 °C with HeLa Kyoto [2] (cell cycle stage: G1/S) and 50.8 °C in the data set on HeLa Kyoto [2] (cell cycle stage: mitosis). In addition, the “solubility change mitosis (log2)” value with HeLa Kyoto [3] was -0.111. Further, the thermal stability score in the data set with HeLa Kyoto [4] (setting [5]) is 1.5; with HeLa Kyoto [4] (cell cycle stage: mitosis) it was 0.565.
Consider “MKKMSRNVLLQMEEEEDDDDGDIVLENLGQTIVPDLGSLESQHDFRTPEFEEFNGKPDSLFFNDGQRRIDFVLVYEDESRKETNKKGTNEKQRRKRQAYESNLICHGLQLEATRSVLDDKLVFVKVHAPWEVLCTYAEIMHIKLPLKPNDLKNRSSAFGTLNWFTKVLSVDESIIKPEQEFFTAPFEKNRMNDFYIVDRDAFFNPATRSRIVYFILSRVKYQVINNVSKFGINRLVNSGIYKAAFPLHDCKFRRQSEDPSCPNERYLLYREWAHPRSIYKKQPLDLIRKYYGEKIGIYFAWLGYYTQMLLLAAVVGVACFLYGYLNQDNCTWSKEVCHPDIGGKIIMCPQCDRLCPFWKLNITCESSKKLCIFDSFGTLVFAVFMGVWVTLFLEFWKRRQAELEYEWDTVELQQEEQARPEYEARCTHVVINEITQEEERIPFTAWGKCIRITLCASAVFFWILLIIASVIGIIVYRLSVFIVFSAKLPKNINGTDPIQKYLTPQTATSITASIISFIIIMILNTIYEKVAIMITNFELPRTQTDYENSLTMKMFLFQFVNYYSSCFYIAFFKGKFVGYPGDPVYWLGKYRNEECDPGGCLLELTTQLTIIMGGKAIWNNIQEVLLPWIMNLIGRFHRVSGSEKITPRWEQDYHLQPMGKLGLFYEYLEMIIQFGFVTLFVASFPLAPLLALVNNILEIRVDAWKLTTQFRRLVPEKAQDIGAWQPIMQGIAILAVVTNAMIIAFTSDMIPRLVYYWSFSVPPYGDHTSYTMEGYINNTLSIFKVADFKNKSKGNPYSDLGNHTTCRYRDFRYPPGHPQEYKHNIYYWHVIAAKLAFIIVMEHVIYSVKFFISYAIPDVSKRTKSKIQREKYLTQKLLHENHLKDMTKNMGVIAERMIEAVDNNLRPKSE [ANO6]”, for which the “solubility in G1/S (log2)” value with HeLa Kyoto [1] came out at 0.0135. Further, the melting temperature in the data set with HeLa Kyoto [2] (cell cycle stage: G1/S) was 54.6 °C; with HeLa Kyoto [2] (cell cycle stage: mitosis), 54.3 °C. In addition, the “solubility change mitosis (log2)” value with HeLa Kyoto [3] is -0.0681. In addition, the thermal stability score was found to be 0.734 with HeLa Kyoto [4] (setting [5]) and 0.413 in the data set with HeLa Kyoto [4] (cell cycle stage: mitosis).
Consider “MKLLTHNLLSSHVRGVGSRGFPLRLQATEVRICPVEFNPNFVARMIPKVEWSAFLEAADNLRLIQVPKGPVEGYEENEEFLRTMHHLLLEVEVIEGTLQCPESGRMFPISRGIPNMLLSEEETES [TRMT112]”, for which, in the data set with HeLa Kyoto [1], the “solubility in G1/S (log2)” value is 0.323. Besides, the melting temperature came to 51.5 °C with HeLa Kyoto [2] (cell cycle stage: G1/S) and 51.4 °C with HeLa Kyoto [2] (cell cycle stage: mitosis). Further, in the data set with HeLa Kyoto [3], the “solubility change mitosis (log2)” value turned out to be 0.201. Also, the figures for the thermal stability score in the data set with HeLa Kyoto [4] (setting [5]) and in the data set on HeLa Kyoto [4] (cell cycle stage: mitosis) were -4.68 and -1.02, respectively.
